Legend:
[1] = molecular target: recombinant HBcAg assembly domain dimer (construct Cp1–149.C48A.C107A) (Hepatitis B virus (strain not stated)) (UniProt P03147); test: AUC
[2] = molecular target: recombinant HBeAg dimer (construct Cp(−10) 149 C48A.C107A) (Hepatitis B virus (strain not stated)) (UniProt P03147); test: AUC

Substance	stoichiometry N [1]	percent of dimers converted to capsids (the pair that is blocked) [2]
recombinant HBcAg assembly domain dimer (construct Cp1–149.C48A.C107A) (from UniProt P03147 1-149) (domain or fragment)	2	–
recombinant HBeAg dimer (construct Cp(−10) 149 C48A.C107A) (from UniProt P03147 1-149) (domain or fragment)	–	40%

Reference: paper PMC6170708
